US20170107569, “METHOD FOR ATTACHING ONE OR MORE POLYNUCLEOTIDE BINDING PROTEINS TO A TARGET POLYNUCLEOTIDE” (Oxford Nanopore Technologies Ltd., published 2017)

T1: T4 Dda-E94C/C109A/C136A/A360C helicase (UniProt P32270 SEQ:1-439, E94C/C109A/C136A/A360C)
T1 sequence: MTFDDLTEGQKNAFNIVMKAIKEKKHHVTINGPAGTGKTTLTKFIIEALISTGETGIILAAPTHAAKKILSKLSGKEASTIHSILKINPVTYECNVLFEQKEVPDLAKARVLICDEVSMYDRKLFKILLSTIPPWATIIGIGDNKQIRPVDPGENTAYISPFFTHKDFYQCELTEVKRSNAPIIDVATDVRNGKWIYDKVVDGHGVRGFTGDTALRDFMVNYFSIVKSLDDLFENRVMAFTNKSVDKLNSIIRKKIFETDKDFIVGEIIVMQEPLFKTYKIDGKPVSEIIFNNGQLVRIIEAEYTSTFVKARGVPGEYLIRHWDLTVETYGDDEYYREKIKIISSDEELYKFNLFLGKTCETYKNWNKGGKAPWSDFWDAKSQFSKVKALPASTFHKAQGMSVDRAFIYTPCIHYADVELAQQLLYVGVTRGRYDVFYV


Tests used:
[1] = biological target: T1, T4 Dda-E94C/C109A/C136A/A360C helicase; test: EMSA; native TBE PAGE; 50 mM HEPES, 100 mM KOAc pH 8, 1 mM EDTA, 100 uM TMAD; 2:1 and 1:1 complexes, single enzyme after KCl/ATP and SPRI; details: tags: closed with TMAD; Y-adapter, partly double-stranded
Description: T4 Dda—E94C/C109A/C136A/A360C (3 μM, SEQ ID NO: 24 with mutations E94C/C109A/C136A/A360C) and DNA Y-adapter (500 nM, SEQ ID NO: 26 was hybridised to DNA strand X=30 iSpC3 spacers attached at the 3′ end to the 5′ end SEQ ID NO: 27 which is attached at the 3′ end to 4 iSp18 spacers which are attached at the opposite end to the 5′ end of SEQ ID NO: 28) were mixed in buffer (50 mM HEPES, 100 mM KOAc (pH 8) and EDTA (1 mM) and TMAD (100 μM) were added and incubated for 60 minutes at room temperature. The mixture was then diluted 1:1 in KCl/ATP solution (500 mM KCl, 1 mM ATP final) and incubated at ambient temperature for 25 mins, this mixture was known as sample 3.
The resultant enzyme bound to DNA was then analysed using a TBE PAGE gel as described previously in Example 1 except the gel was run for 45 mins.

[2] = biological target: T1, T4 Dda-E94C/C109A/C136A/A360C helicase; test: EMSA; native TBE PAGE, band C; details: tags: closed with TMAD; Y-adapter, partly double-stranded
Description: Each sample run on the gel was 400 nM (5 μL). Lane 1 corresponded to a 100 bp ladder (the number of base pairs that the bands correspond to is shown along the side of the gel). Lane 2 corresponded to helicase leader complex shown in FIG. 12A, without the helicase bound. Lane 3 corresponded to the helicase leader complex shown in FIG. 12A with the helicase bound. Lane 4 corresponded to the polymerase strand complex shown in FIG. 12B without the polymerase bound. Lane 5 corresponded to the polymerase strand complex shown in FIG. 12B with the polymerase bound. Band A corresponded to SEQ ID NO: 43. Band B corresponded to DNA strand X=30 iSpC3 spacers attached at the 3′ end to the 5′ end SEQ ID NO: 27 which is attached at the 3′ end to 4 iSp18 spacers which are attached at the opposite end to the 5′ end of SEQ ID NO: 28. Band C corresponded to the helicase (T4 Dda—E94C/C109A/C136A/A360C) bound to DNA strand X. Band D corresponded to the polymerase strand complex without the enzyme bound (SEQ ID NO: 44 which was attached at its 3′ end to four iSpC3 spacers which were attached at the opposite end to the 5′ end of SEQ ID NO: 45). Band E corresponded to Phi29-A411C/Q560C bound to the polymerase strand complex.
The helicase-leader complex (diagram shown in FIG. 12 section A) was prepared as described in Example 2, except SEQ ID NO: 26 is replaced with SEQ ID NO: 43.

Binder	binding result [1]	binding result [2]
DNA Y-adapter (Example 2) (mixed, 30 iSpC3 at 5' end of SEQ 27; 4 iSp18 between SEQ 27 and SEQ 28; 5' phosphate on SEQ 26) DNA 1: TTTTTTTTTTTTGGTTGTTTCTGTTGGTGCTGATATTGCGGCGTCTGCTTGGGTGTTTAACCT DNA 2: GGTTAAACACCCAAGCAGACGCCGCAATATCAGCACCAACAGAAACAACCTTTGAGGCGAGCGGTCAA	binds	–
helicase-leader Y-adapter (Example 7) (mixed, 30 iSpC3 at 5' end of SEQ 27; 4 iSp18 between SEQ 27 and SEQ 28) DNA 1: TTTTTTTTTTTTGGTTGTTTCTGTTGGTGCTGATATTGCGGCGTCTGCTTGGGTGTTTAACCT DNA 2: GCAATATCAGCACCAACAGAAACAACCTTTGAGGCGAGCGGTCAA	–	binds
